This is an account of results in the nanobody polyreactivity screen of Harvey et al. (2022).

The nature of this data set: yeast display, Sf9 membrane polyspecificity reagent, FACS + sequencing; frameworks hold sequencing errors. The method in brief: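 Genes from sorted yeast were amplified by colony PCR, read by MiSeq 2 × 250 sequencing and filtered on CDR length. These cells carried a synthetic nanobody library in Saccharomyces cerevisiae BJ5465 and were sorted by FACS into low and high (top ~1%) gates on anti-HA and streptavidin fluorescence. Polyreactivity is labelled according to the gate of origin.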
In the case of “QVQLVESGGGLVQAGGSLRLSCAASGSTFDGNVMGWYRQAPGKERELVADIDSGGSTNYADSVKGRFTISRDNAKNTVYLQMNSLKPEDTAVYYCKAEWDDSFIRWFRYRGNYWGQGTQVTVSS”, the “polyreactivity (PSR sort gate)” value was “low polyreactivity”.

With “QVQLVESGGGLVQAGGSLRLSCAASGSTFDHYAMGWYRQAPGKERELVAAITRSGGSTYYADSVKGRFTISRDNAKNTVYLQMNSLKPEDTAVYYCNARRWITSDYWGQGTQVTVSS”, the “polyreactivity (PSR sort gate)” value is “high polyreactivity”.

For “QVQLVESGGGLVQAGGSLRLSCAASGSTFDIYAMGWYRQAHGKERELVAVISGGEGSTYYADSVKGRFTISRDNAKNTVYLQMNSLKPEDTAVYYCAADYISPGYWDGEYDCWGQGTQVTVSS”, the “polyreactivity (PSR sort gate)” value is listed as “low polyreactivity”.

Turning to “QVQLVESGGGLVQAGGSLRLSCAASGSTFDIYAMGWYRQAPGKERELVAAIRGRGGSTYYADSVKGRFTISRDNAKNTVYFQMNSLKPEDTAVYYCAADSYATRYYYWGQGTQVTVSS”, the “polyreactivity (PSR sort gate)” value is “high polyreactivity”.

“QVQLVESGGGLVQAGGSLRLSCAASGSTFDIYAMGWYRQAPGKEREMVAAIDFSGGSTYYADSVKGRFTISRDNAKNTVYLQMNSLKPEDTAVYYCAADVQKHFYSFGDERGFPFDYWGQATQVTVSS”: the “polyreactivity (PSR sort gate)” value is given as “low polyreactivity”.

In the case of “QVQLVESGGGLVQAGGSLRLSCAASGSTFDKYAMGWYRQAPGKERELVATISQSGASTYYADSVKGRFTISRDNAKNTVYFQMNSLKPEDTAVYYCAAAGGEQTKDYYYWGQGTQVTVSS”, the “polyreactivity (PSR sort gate)” value is reported as “high polyreactivity”.

In the case of “QVQLVESGGGLVQAGGSLRLSCAASGSTFDKYVMGWYRQAPGKERELVAVIDWRDGTTYYADSVKGRFTISRDNAKNTVYLQMNSLKPEDTAVYYCNADNDNYGDVYPYYTAGYGYWGQGTQVTVSS”, the “polyreactivity (PSR sort gate)” value is “low polyreactivity”.

For the sequence “QVQLVESGGGLVQAGGSLRLSCAASGSTFDLNAMGWYRQAPGKERELVARITSSTGRTFYADSVKGRFTISRDNAKNTVYLQMNSLKPEDTAVYYCAKDHASYSYWPSVLPYDHWGQGTQVTVSS”, the “polyreactivity (PSR sort gate)” value is given as “low polyreactivity”.

As for “QVQLVESGGGLVQAGGSLRLSCAASGSTFDNNAMGWYRQAPGKERELVAAISWGGGSTYYADSVKGRFTISRDNAKNTVYLQMNSLKPEDTAVYYCAKLKGTQPNRYDYWGQGTQVTVSS”, the “polyreactivity (PSR sort gate)” value is “low polyreactivity”.

As to “QVQLVESGGGLVQAGGSLRLSCAASGSTFDNYAMGWYRQAPGKERELVATITSGGSITNYADSVKGRFTISRDNAKNTVYLQMYSLKPEDTAVYYCAKRRYFYYRGDYWGQGTQVTVSS”, the “polyreactivity (PSR sort gate)” value was “high polyreactivity”.

Regarding “QVQLVESGGGLVQAGGSLRLSCAASGSTFDPNALGWYRQAPGKERELVAAISYTGGRTYYADSVKGRFTISRDNAKNTVYLQMNSLKPEDTAVYYCAVLVVGSTTQDEPYFSGVEHDYWGQGTQVTVSS”, the “polyreactivity (PSR sort gate)” value is listed as “low polyreactivity”.

With “QVQLVESGGGLVQAGGSLRLSCAASGSTFDPNAMGWYRQAPGKERELVAAITSGGSTYYADSVKGRFTISRDNAKNTVYLQMNSLKPEDTAVYYCNAPLEWGVYAAQNWDDGYWGQGTQVTVSS”, the “polyreactivity (PSR sort gate)” value was “low polyreactivity”.

Turning to “QVQLVESGGGLVQAGGSLRLSCAASGSTFDPNAMGWYRQARGKERELVAAISYTGGRTYYADSVKGRFTISRDNAKNTVYLQMNSLKPEDTAVYYCAVLVVGSTTQDEPYFSGVEHDYWGQGTQVTVSS”, the “polyreactivity (PSR sort gate)” value is recorded as “low polyreactivity”.

Turning to “QVQLVESGGGLVQAGGSLRLSCAASGSTFDPYAMGWYRQAPGKEREFVAAISGSGGSTYYADSVKGRFTISRDNAKNTVYLQMNSLKPEDTAVYYCAKDSFPWVDDDYWGQGTQVTVSS”, the “polyreactivity (PSR sort gate)” value is on record as “low polyreactivity”.

Regarding “QVQLVESGGGLVQAGGSLRLSCAASGSTFDPYAMGWYRQAPGKEREFVADIDSSVGSTFYADSVKGRFTISRDNAKNTVYLQMNSLKPEDTAVYYCAAVYESYYYEYYYWGQGTQVTVSS”, the “polyreactivity (PSR sort gate)” value is “high polyreactivity”.

As for “QVQLVESGGGLVQAGGSLRLSCAASGSTFDPYAMGWYRQAPGKERELVAAITSGGGTKYADSVKGRFTISRDNAKNTVYLQMNSLKPEDTAVYYCAADYFDSSYQPTDSILYEYWGQGTQVTVSS”, the “polyreactivity (PSR sort gate)” value is listed as “low polyreactivity”.

Regarding “QVQLVESGGGLVQAGGSLRLSCAASGSTFDPYGMGWYRQAPGKERELVAAITSSGRTNYADSVKGRFTISRDNAKNTVYLQMNSLKPEDTAVYYCATRKERYFYRGYEYWGQGTQVTVSS”, the “polyreactivity (PSR sort gate)” value is “low polyreactivity”.

Turning to “QVQLVESGGGLVQAGGSLRLSCAASGSTFDQYALGRYRQAPGKERELVADITSSDGSTYYADSVKGRFTISRDIAKNTVYLQMNSLKPEDTAVYYCNADYRYIWTYWGWSIYDYWGQGTQVTVSS”, the “polyreactivity (PSR sort gate)” value is given as “high polyreactivity”.

On to “QVQLVESGGGLVQAGGSLRLSCAASGSTFDRNAMGWYRKAPGKERELVAAISKRSGSTYYADSVKGRFTISRDNAKNTVYLQMNSLKPEDTAVYYCAADRISYRGMGSWGQGTQVTVSS”, for which the “polyreactivity (PSR sort gate)” value was “high polyreactivity”.

As to “QVQLVESGGGLVQAGGSLRLSCAASGSTFDRYAMGWYRQAPGKERELVAAISHSGGRTYYADSVKGRFTISRDNAKNTVYLQMNSLKPEDTAVYYCAAKSRSGTEAAYGYWGQGTQVTVSS”, the “polyreactivity (PSR sort gate)” value was “low polyreactivity”.

In the case of “QVQLVESGGGLVQAGGSLRLSCAASGSTFDRYAMGWYRQAPGKERELVAAISWSAGRTYYADSVKGRFTISRDNAKNTVYLQMNSLKPEDTAVNYCAADQIVSGTYDYYWGQGTQVTVAS”, the “polyreactivity (PSR sort gate)” value is “low polyreactivity”.

Turning to “QVQLVESGGGLVQAGGSLRLSCAASGSTFDRYAMGWYRQAPRKERELVAANSWSAGRTDYADSVKGRFTISRDNAKNTVYLQMNSLKPEDTAVYYCAADYWYRTFYGYFGYDYWGQGTQVTVSS”, the “polyreactivity (PSR sort gate)” value is reported as “low polyreactivity”.

Take “QVQLVESGGGLVQAGGSLRLSCAASGSTFDSYAMGWYRQAPGKERELVAAITRSDASTYYADSVKGRFTISRDNAKNTVYLQMNSLKPEDTAVYYCDADTSLVYYGGDWEYYYWGQGTQVTVSS”: the “polyreactivity (PSR sort gate)” value is “low polyreactivity”.

Consider “QVQLVESGGGLVQAGGSLRLSCAASGSTFDSYGMGWYRQAPGKERELVASISSRGGSTYYADSVKGRFTLSRDNAKNTVYFQMNSLKPEDTAVYYCAAKGPRRWGSGFDYWGQGTQVTVSS”, for which the “polyreactivity (PSR sort gate)” value is “low polyreactivity”.

Take “QVQLVESGGGLVQAGGSLRLSCAASGSTFDSYGMGWYRQAPGKERELVGSISSRGGSTYYADSVKGRFTISRDNAKNTVYLQMNSLKPEDTAVYYCAAEWLSWFHGYGMYYWGQGTQVTVSS”: the “polyreactivity (PSR sort gate)” value was “low polyreactivity”.

For “QVQLVESGGGLVQAGGSLRLSCAASGSTFDTYAMGWYRPAPRKERELLAAISRSGTSTYYADSVKGRFTISRDNAKNTVYLQMNSLKPEESAVYYCAAYGPRVNGEIGREYYYWGQGTQVTVSS”, the “polyreactivity (PSR sort gate)” value is given as “low polyreactivity”.

In the case of “QVQLVESGGGLVQAGGSLRLSCAASGSTFDVNAMGWYRQAPGKERELVADITSGGSTNYADSVKGRFTISRDNAKNTVYLQMNSLKREDTAVYYCARDDWFGFIRVQEMDYWGQGTQVTVSS”, the “polyreactivity (PSR sort gate)” value was “low polyreactivity”.

Turning to “QVQLVESGGGLVQAGGSLRLSCAASGSTFDVNAMGWYRQAPGKERELVAVITSGGSTNYADSVKGRFTISRDNAKNTVYLQMNSLKPEDTAVYYCAKDSRTLYDYWGQGTQVTVSS”, the “polyreactivity (PSR sort gate)” value is on record as “low polyreactivity”.

As to “QVQLVESGGGLVQAGGSLRLSCAASGSTFDVYAMGWYRQAPGKERELVAAISFSSGSTYYADSVKGRFTISRDNAKNTVYLQMNSLKPEDTAVYYCAARTYRYPYWGYDYWGQGTQVTVSS”, the “polyreactivity (PSR sort gate)” value is “high polyreactivity”.

Turning to “QVQLVESGGGLVQAGGSLRLSCAASGSTFDVYAMGWYRQAPGKERELVAAISLGTGITYYADSVKGRFTISRDNAKNTVYFQMNSLKPEDTAVYYCAVAIETGYGAYDGYIYYYWGQGTQVTVSS”, the “polyreactivity (PSR sort gate)” value is reported as “high polyreactivity”.

For “QVQLVESGGGLVQAGGSLRLSCAASGSTFDVYAMGWYRQAPGKERELVATISWIGGSTYYADSVKGRFTISRDYAKKTVYLQMNSLKPEDTAVYYCAAESSPLEYDYWGQGTQVTVSS”, the “polyreactivity (PSR sort gate)” value was “low polyreactivity”.

Take “QVQLVESGGGLVQAGGSLRLSCAASGSTFDVYAMGWYRQATGKERELVAVINTSGTRTYYADSVKGRFTISRDNSKNTVYLQMISLKPEDTAVYYCNAGGHLEMNYWGEGTQVTVSS”: the “polyreactivity (PSR sort gate)” value is “low polyreactivity”.

As to “QVQLVESGGGLVQAGGSLRLSCAASGSTFDVYARGGYRQAPGKERELVAAITSGGTTNYADSVKGRFTLSRDNAKNTVYLQMNSLKPEDTAVYYCAKDSRNVYWDYGYWGQGTQVTVSS”, the “polyreactivity (PSR sort gate)” value is recorded as “low polyreactivity”.

Regarding “QVQLVESGGGLVQAGGSLRLSCAASGSTFDWYAMGWYRQAPGKERELVAAISSDDSTYYADSVKGRFTISRDNAKNTVYLQMNSLKPEDTAVYYCAVDVYSDYGDYGYWGQGTQVTVSS”, the “polyreactivity (PSR sort gate)” value is on record as “low polyreactivity”.

In the case of “QVQLVESGGGLVQAGGSLRLSCAASGSTFDWYAMGWYRQAPGKERELVAAITSGGSTYYADSVKGRFTISRDNAKNTVYLQMNSLKPEDTAVYYCAAESRQVRYILYYYWGQGTQVTVSS”, the “polyreactivity (PSR sort gate)” value was “low polyreactivity”.

Consider “QVQLVESGGGLVQAGGSLRLSCAASGSTFDWYVMGWNRQAPGKETELVAAINQGSGSTYYADSVKGRFTISRDNAKNPVYLQMNSLKPEDTAVYYCAADRYGAGYLYWPYDYWGQGTQVTVSS”, for which the “polyreactivity (PSR sort gate)” value is listed as “low polyreactivity”.

Consider “QVQLVESGGGLVQAGGSLRLSCAASGSTFDYNDMGWYRQAPGKERELVASITFSGGTYDADSVKGRFTISRDNAKTTVYLQMNSLTPEDTAVYYCNAVYFFYIDPWNSYPTYDYWGQGTQVTVSS”, for which the “polyreactivity (PSR sort gate)” value is given as “high polyreactivity”.

With “QVQLVESGGGLVQAGGSLRLSCAASGSTFDYNTMGWYRQAPGKERELVAAINNSGGSTYYADSVKGRFTISRDNAKNTVYLQMNSLKPEDTAVYYCAAVSYRRHFGPYNYWGQGTQVTVSS”, the “polyreactivity (PSR sort gate)” value was “low polyreactivity”.

For “QVQLVESGGGLVQAGGSLRLSCAASGSTFDYYAMGWYRPAPGKERELVAAISRRGGGTYYADSVKGRFTISRDNAKNTVYLQMNSLKPEDTAVYYCAKAVKYPTKALAVGYWGQGTQVTVSS”, the “polyreactivity (PSR sort gate)” value is “high polyreactivity”.

In the case of “QVQLVESGGGLVQAGGSLRLSCAASGSTFDYYAMGWYRQAPGKERELVAAISGSGDRTYYADSVKGGFTISRDNAKNTVYLQMNSLKREDTAVYYCAKYGRTRFYYWGQVTQVTVSS”, the “polyreactivity (PSR sort gate)” value is recorded as “high polyreactivity”.
